Laboratory results reported in patent publication US8663916B2 (priority 2006, dated 2014).
Where two headings read alike, the source gives them in different places.

Tests used:
[1] = test system: ATCC 10231 C. albicans cells; test: cell growth inhibition assay in M-H liquid medium (turbidity, filament sedimentation, microscopy); type: cell-based, Candida albicans; settings: for spores under microscope: 2 ul treated medium on a slide, Ph-CA1 10 ug/ml, amphotericin B 2 ug/ml, FIG. 5
Excerpt: FIG. 4 depicts the inhibition effects of Ph-CA against the growth of ATCC 10231 C. albicans cells in M-H liquid medium. The amount of sedimentary fungal filaments at the bottom of flasks indicated the inhibition effects of treatment agents. (A) Control, (B) fluconazole, (C) amphotericin B, (D) Ph-SA, (E) Ph-CA2 produced by pCHCCA2 plasmid and (F) Ph-CA1.
FIG. 5 depicts the inhibition effects of Ph-CA against the growth of C. albicans cells in liquid medium. The amount of spores and filaments of ATCC 10231 C. albicans cells indicated the inhibition effects. (A) Control, (B) fluconazole, (C) amphotericin B, (D) Ph-SA, (E) Ph-CA2 (F) Ph-CA1. X400.
In vitro cell growth inhibition assays were performed in 100 ml Klett flasks containing 10 ml of M-H medium which were monitored turbimetrically with a BioRad 550 microplate reader at OD595 nm every 60 min. The filament (mycelium) precipitation at the bottom of flask was counted with a digital photo-recorder every 6 hrs. Cells were inoculated to an initial cell density of about 2.5×10^5 CFU/ml and shaken at 200 rpm on an orbital shaker at 35° C. Sedimentary fungal filaments appeared in about 36 hrs growing.
Ph-CA1 and Ph-CA2 were added at the start of the culture. The same amount of borate stock solution (50 mM borate, PH9.0), Ph-SA (pheromonicin constructed by colicin Ia and staphylococcal pheromone AgrD1)(10 ug/ml) and several antibiotics preparations (2 ug/ml amphotericin B, 6 ug/ml fluconazole) were used as controls. All assays were expressed in turbidometric absorbance units measured at 595 nm and pictures of the filament sedimentation at the bottom of the flask were taken.

Magnaporthe grisea [2] = type: in vivo, rice (seed, gangyou 725); settings: for Grades of impaired leaves 0 (number of leaves) / Grades of impaired leaves 1 (number of leaves) / Grades of impaired leaves 3 (number of leaves) / Grades of impaired leaves 5 (number of leaves) / Incident rate / Infected index / Protecting efficacy: seven days after treatment, sprayed twice: tricyclazole 0.5 and 1 mg/ml, Ph-CA1 1 and 2 ug/ml, 200 leaves
Magnaporthe grisea [3] = type: in vivo, rice (seed, gangyou 725); settings: sprayed once at head stage: tricyclazole 1 mg/ml, Ph-CA1 2 ug/ml
[4] = test system: Candida albicans (ATCC 10231); type: cell-based
[5] = test system: Cryptococcus neoformans (Huaxi 30168 strain); type: cell-based
C. albicans (ATCC 10231) = test: systemic candidiasis in mice, survival; type: in vivo, KungMing mice
Method: KungMing mice, half male and half female, weighing 18-22 g were injected intraperitoneally with 0.5 ml of C. albicans (ATCC 10231), 10^8 CFU/ml. One hour after C. albicans injection, mice were injected intraperitoneally with 0.9% saline […] alone as control (n=10) (C), or with amphotericin B (n=10, 1 ug/gm/day) (B), or with Ph-CA1 (n=10, 5 ug/gm/day) (A) daily for 14 days. The number of surviving animals was determined every 24 hours (FIG. 11).
KungMing mice, half male and half female, weighing 18-22 g were injected intraperitoneally with 0.7 ml of C. albicans (ATCC 10231), 10^8 CFU/ml. One hour after C. albicans injection, mice were injected in the tail vein with 0.9% saline alone as control (n=10) (C), or with amphotericin B (n=10, 1 ug/gm) (B), or with Ph-CA1 (n=10, 5 ug/gm) (A). The mice were then injected intraperitoneally with 0.9% saline alone, or with amphotericin B (n=10, 1 ug/gm), or with Ph-CA1 (n=10, 5 ug/gm) each day. The number of surviving animals was determined every 24 hours (FIG. 12).

[6] = test system: Aspergillus flavus (Huaxi 30255 strain); type: cell-based
[7] = test system: Cryptococcus neoformans, Aspergillus flavus, Magnaporthe grisea and Fusarium moniforme cells; type: cell-based; settings: on a molar basis
[8] = test system: Magnaporthe grisea (ACCC 30320 strain); type: cell-based; settings: PDA solid medium; 100 ul Ph-CA1 25 and 50 ug/ml; FIG. 9
[9] = test system: Fusarium moniforme (ACCC 30133 strain); type: cell-based
[10] = test system: ATCC 10231 C. albicans cells; test: fluorescent imaging with FITC/propidium iodide; type: cell-based, Candida albicans; settings: 10 ug/ml, 24 hrs; 50 nM FITC/600 nM propidium iodide
Method: FIG. 6 depicts the fluorescent imaging of ATCC 10231 C. albicans cells treated by Ph-CA1 and stained with 50 nM FITC/600 nM propidium iodide. […] X400.

[11] = repeated intraperitoneal dosing in mice, bodyweight and histology; type: in vivo, KungMing mice; settings: 200 ug/mouse/day intraperitoneally for 20 days
Method: KungMing mice (n=10), half male and half female, weighing 18-22 g were injected intraperitoneally with Ph-CA1 (200 ug/mouse/day) for 20 days. The bodyweight of all mice was increased.

## OC(Cn1cncn1)(Cn1cncn1)c1ccc(F)cc1F [Fluconazole, fluconazole, reference compound]
[1]; 6 ug/ml, M-H liquid medium
  effect on growth of C. albicans: no effect

## Cc1cccc2sc3nncn3c12 [Tricyclazole, tricyclazole, reference compound]
Magnaporthe grisea [2]
  Grades of impaired leaves 0 (number of leaves): 172
  Grades of impaired leaves 1 (number of leaves): 10
  Grades of impaired leaves 3 (number of leaves): 12
  Grades of impaired leaves 5 (number of leaves): 6
  Incident rate: 14
  Infected index: 4.22
  Protecting efficacy: 75.83
Magnaporthe grisea [3]
  Damage rate: 1.63%
  Grades of impaired ears 0 (number of ears): 184
  Grades of impaired ears 1 (number of ears): 16
  Grades of impaired ears 3 (number of ears): 9
  Grades of impaired ears 5 (number of ears): 2
  Grades of impaired ears 7 (number of ears): 2
  Grades of impaired ears 9 (number of ears): 0
  Impaired ears rate: 13.62%
  Infected index: 3.5

## C[C@@H]1[C@H](O)[C@@H](C)/C=C/C=C/C=C/C=C/C=C/C=C/C=C/[C@H](O[C@@H]2O[C@H](C)[C@@H](O)[C@H](N)[C@@H]2O)C[C@@H]2O[C@](O)(C[C@@H](O)C[C@@H](O)[C@H](O)CC[C@@H](O)C[C@@H](O)CC(=O)O[C@H]1C)C[C@H](O)[C@H]2C(=O)O [amphotericin B, reference compound]
[1]; 2 ug/ml, M-H liquid medium
  effect on growth of C. albicans: completely inhibited
[1]
  spores under microscope: scarcely observed

B1: Ph-CA2: fusion peptide of colicin Ia with Candida albicans alpha-mating pheromone n-terminal to the colicin Ia; SEQ ID NO:7; from plasmid pCHCCA2 (protein)
chain: GFRLYNFGYFEPGKDAINFTTEFLKSVSEKYGAKAEQLAREMAGQAKGKKIRNVEEALKTYEKYRADINKKINAKDRAAIAAALESVKLSDISSNLNRFSRGLGYAGKFTSLADWITEFGKAVRTENWRPLFVKTETIIAGNAATALVALVFSILTGSALGIIGYGLLMAVTGALIDESLVEKANKFWGI
modifications: Amino acid sequence of Ph-CA2
notes: fusion peptide of colicin Ia with Candida albicans alpha-mating pheromone n-terminal to the colicin Ia; from plasmid pCHCCA2
[1]; 10 ug/ml, M-H liquid medium
  inhibition effect relative to that of Ph-CA1: about 30%
[1]
  antifungal effect on Candida albicans in vitro: almost had no effect

B2: Ph-CA1: fusion peptide of colicin Ia with Candida albicans alpha-mating pheromone c-terminal to the colicin Ia; SEQ ID NO:5; from plasmid pCHCCA1 (protein)
chain: DAINFTTEFLKSVSEKYGAKAEQLAREMAGQAKGKKIRNVEEALKTYEKYRADINKKINAKDRAAIAAALESVKLSDISSNLNRFSRGLGYAGKFTSLADWITEFGKAVRTENWRPLFVKTETIIAGNAATALVALVFSILTGSALGIIGYGLLMAVTGALIDESLVEKANKFWGIGFRLYNFGYFEPGK
modifications: Amino acid sequence of Ph-CA1
notes: fusion peptide of colicin Ia with Candida albicans alpha-mating pheromone c-terminal to the colicin Ia; from plasmid pCHCCA1
[4]
  inhibition zone: inhibition-zone
[5]
  antifungal effects: definite antifungal effects
C. albicans (ATCC 10231); in vivo
  antifungal effect on Candida albicans in vivo: definite antifungal effect
C. albicans (ATCC 10231); on a molar basis, Ph-CA1 5 ug/gm, amphotericin B 1 ug/gm
  in vivo antifungal activity against systemic candidiasis relative to amphotericin B: at least twenty times greater
[6]
  antifungal effects: definite antifungal effects
Magnaporthe grisea [2]; concentration and molar basis taken together, both in vivo protecting assays (Tables I and II)
  total effects against rice blast disease relative to tricyclazole: 10^4 to 10^5 times
Magnaporthe grisea [2]; on a molar basis, both in vivo protecting assays (Tables I and II)
  protecting effects relative to tricyclazole: three hundred times greater
Magnaporthe grisea [2]
  Grades of impaired leaves 0 (number of leaves): 67
  Grades of impaired leaves 1 (number of leaves): 12
  Grades of impaired leaves 3 (number of leaves): 13
  Grades of impaired leaves 5 (number of leaves): 8
  Incident rate: 16.5
  Infected index: 5.05
  Protecting efficacy: 70.94
[7]
  antifungal effects relative to known antifungal antibiotics: one hundred to one thousand times greater
[8]
  antifungal effects: definite antifungal effects
[9]
  antifungal effects: definite antifungal effects
[10]
  cell membrane damage (propidium iodide entry, cells stained red): cells became red
Magnaporthe grisea [3]
  Damage rate: 0.53%
  Grades of impaired ears 0 (number of ears): 218
  Grades of impaired ears 1 (number of ears): 19
  Grades of impaired ears 3 (number of ears): 5
  Grades of impaired ears 5 (number of ears): 0
  Grades of impaired ears 7 (number of ears): 0
  Grades of impaired ears 9 (number of ears): 0
  Impaired ears rate: 9.92%
  Infected index: 1.56
[11]
  bodyweight: increased
[11]; hematoxylin and eosin
  microscopic findings in livers, kidneys or spleens: no microscopic evidence of necrosis or inflammation
[1]; 10 ug/ml, M-H liquid medium
  effect on growth of C. albicans: completely inhibited
[1]
  spores under microscope: scarcely observed
  antifungal effect on Candida albicans in vitro: definite antifungal effect
[1]; on a molar basis, Ph-CA1 70 kDa, amphotericin B about 0.9 kDa
  inhibitory effect relative to amphotericin B: approximately ten times greater
